Assay results as given in publication PMC7145599, “Cooperative DNA binding by proteins through DNA shape complementarity” (Nucleic Acids Research, 2019).

Columns and labels:
[1] = test system: Xis-Arg39Lys (phage lambda); experiment: EMSA; settings: no Fis; stepwise, non-cooperative; EMSA: 20 mM HEPES pH 7.5, 0.1 M NaCl, 5% glycerol, 500 ug/ml BSA, 1 mM EDTA, 1 mM DTT, 25 C; competitor 50 ug/ml poly dI/dC (34 bp), 5 ug/ml poly dI/dC (Fig 2) …
[2] = test system: Xis-Arg39Ala (phage lambda); experiment: EMSA; settings: no Fis; cooperative; EMSA: 20 mM HEPES pH 7.5, 0.1 M NaCl, 5% glycerol, 500 ug/ml BSA, 1 mM EDTA, 1 mM DTT, 25 C; competitor 50 ug/ml poly dI/dC (34 bp), 5 ug/ml poly dI/dC (Fig 2) …
[3] = target: Fis;Xis-wt (phage lambda) (UniProt P0A6R3); experiment: EMSA; settings: apparent Kd of Xis for Fis-bound DNA; 4 nM Fis; EMSA: 20 mM HEPES pH 7.5, 0.1 M NaCl, 5% glycerol, 500 ug/ml BSA, 1 mM EDTA, 1 mM DTT, 25 C; competitor 50 ug/ml poly dI/dC (34 bp), 5 ug/ml poly dI/dC (Fig 2) …
Fis;Xis1-55 [4] = target: T1, Fis;Xis1-55 (Escherichia coli?;phage lambda, UniProt P0A6R3;P03699 1-98;1-55, |C28S); experiment: X-ray crystallography (Br anomalous); EMSA: 20 mM HEPES pH 7.5, 0.1 M NaCl, 5% glycerol, 500 ug/ml BSA, 1 mM EDTA, 1 mM DTT, 25 C; competitor 50 ug/ml poly dI/dC (34 bp), 5 ug/ml poly dI/dC (Fig 2); settings: protein: recombinant;recombinant; tags: ;; chain copies: 2;1
Fis;Xis1-55 [5] = target: T1, Fis;Xis1-55; experiment: X-ray crystallography; FX2, 2.7 A; EMSA: 20 mM HEPES pH 7.5, 0.1 M NaCl, 5% glycerol, 500 ug/ml BSA, 1 mM EDTA, 1 mM DTT, 25 C; competitor 50 ug/ml poly dI/dC (34 bp), 5 ug/ml poly dI/dC (Fig 2); settings: protein: recombinant;recombinant; tags: ;; chain copies: 2;1
Fis;Xis1-55 [6] = target: T1, Fis;Xis1-55; experiment: X-ray crystallography; FX1-2-1Xis, 3.60 A; Xis at X2; EMSA: 20 mM HEPES pH 7.5, 0.1 M NaCl, 5% glycerol, 500 ug/ml BSA, 1 mM EDTA, 1 mM DTT, 25 C; competitor 50 ug/ml poly dI/dC (34 bp), 5 ug/ml poly dI/dC (Fig 2); settings: protein: recombinant;recombinant; tags: ;; chain copies: 2;1
[7] = target: Fis;Xis1-55 (two protomers) (Escherichia coli?;phage lambda, UniProt P0A6R3;P03699 1-98;1-55, |C28S); experiment: X-ray crystallography; FX1-2-2Xis, 3.30 A; second Xis over X1 in reverse orientation; EMSA: 20 mM HEPES pH 7.5, 0.1 M NaCl, 5% glycerol, 500 ug/ml BSA, 1 mM EDTA, 1 mM DTT, 25 C; competitor 50 ug/ml poly dI/dC (34 bp), 5 ug/ml poly dI/dC (Fig 2); settings: protein: recombinant;recombinant; tags: ;; chain copies: 2;2
[8] = target: the molecule itself; experiment: crystal structure; Fis dimer and Xis^1-55 co-bound to 27 bp DNA duplexes (FX2, FX1-2-1Xis, FX1-2-2Xis); complexes formed in 20 mM Tris-HCl pH 7.5, 200 mM Na acetate; crystals grown at 4°C in 0.1 M HEPES pH 7-7.5, 15% PEG4000

## attR 263 bp
[1]
  binding signal (fold lower affinity than Xis-wt): 10
[2]
  binding signal (fold lower affinity than Xis-wt): 15

## F-X2 34 bp (CA, native)
[3]
  Kd: 400 nM

B1: FX1-2 27 bp 5-BrdU (dsDNA)
DNA 1: AATGTTGTGTTTTTAACAGACTACATT
DNA 2: AATGTAGTCTGTTAAAAACACAACATT
modifications: 5-bromodeoxyuridine at asterisked T positions (incl. nt 8 and 12 from the central T)
Fis;Xis1-55 [4]
  binding result: binds

B2: FX2 27 bp (dsDNA)
DNA 1: AATTTTGCATAAAAAACAGACTACATT
DNA 2: AATGTAGTCTGTTTTTTATGCAAAATT
Fis;Xis1-55 [5]
  binding result: binds

B3: FX1-2 27 bp (dsDNA)
DNA 1: AATGTTGTGTTTTTAACAGACTACATT
DNA 2: AATGTAGTCTGTTAAAAACACAACATT
Fis;Xis1-55 [6]
  binding result: binds
[7]
  binding result: binds

B4: Xis^1-55 (phage lambda Xis residues 1-55 with a cysteine to serine substitution at residue 28) (domain or fragment, UniProt P03699 1-55, looked up)
chain: MYLTLQEWNARQRRPRSLETVRRWVRESRIFPPPVKDGREYLFHESAVKVDLNRP
notes: Used for crystallography; The full-length Cys28Ser xis gene (pRJ2178, pET11a) was used for the gel shift assays on DNA, which are not written here; also called Xis protomer; Xis monomer
[8]
  binding result: binds

B5: Escherichia coli Fis protein (natural protein)
chain: MFEQRVNSDVLTVSTVNSQDQVTQKPLRDSVKQALKNYFAQLNGQDVNDLYELVLAEVEQPLLDMVMQYTRGNQTRAALMMGINRGTLRKKLKKYGMN
notes: Fis, bacterial nucleoid / DNA architectural protein of Escherichia coli; the N-terminal beta-hairpin arms are not resolved in the crystals; also called Fis dimer
[8]
  stoichiometry N: 2
